Data: patent US6376240

Molecular target: recombinant His6-RFLAT-1 (C-terminal portion of RFLAT-1, amino acids 59-288)
Sequence (chain, as listed by the source): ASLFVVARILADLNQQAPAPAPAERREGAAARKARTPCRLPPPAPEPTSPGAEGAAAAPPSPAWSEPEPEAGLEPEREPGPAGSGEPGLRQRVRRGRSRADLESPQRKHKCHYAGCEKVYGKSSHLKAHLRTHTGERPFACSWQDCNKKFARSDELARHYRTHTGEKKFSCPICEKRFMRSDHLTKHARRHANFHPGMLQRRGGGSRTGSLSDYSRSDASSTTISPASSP

B1: ERK1 kinase (protein)
chain: MAAAAAQGGGGGEPRRTEGVGPGVPGEVEMVKGQPFDVGPRYTQLQYIGEGAYGMVSSAYDHVRKTRVAIKKISPFEHQTYCQRTLREIQILLRFRHENVIGIRDILRASTLEAMRDVYIVQDLMETDLYKLLKSQQLSNDHICYFLYQILRGLKYIHSANVLHRDLKPSNLLINTTCDLKICDFGLARIADPEHDHTGFLTEYVATRWYRAPEIMLNSKGYTKSIDIWSVGCILAEMLSNRPIFPGKHYLDQLNHILGILGSPSQEDLNCIINMKARNYLQSLPSKTKVAWAKLFPKSDSKALDLLDRMLTFNPNKRITVEEALAHPYLEQYYDPTDEPVAEEPFTFAMELDDLPKERLKELIFQETARFQPGVLEAP
For B1, the “phosphorylation of recombinant RFLAT-1 by kinase (control)” value was “As controls, ERK1 kinase does not”.
